Assay results: the RNAGym collection of RNA variant scans (doi:10.1021/acssynbio.7b00057)

B1: Pistol ribozyme (parent)
chain: GGGUCGUUGUUCCAUAAUCGCGUGGAUAUGGCACGCAAGUUUCUACCGGGCACCGUAAAUGUCCGACUGGAGCCGUUCGGGCGGCUAUAAACAGACCUCAGGCCCGAAGCGUGGCGGCACCUGCCGCCGGUGGUAAAAAAGAUCGGAAGAGCACACGUCU

Variants of: B1
Assay: aptazyme ON/OFF ratio, guanine; higher = stronger switching; co-transcriptional cleavage with and without guanine
With GGGUCGCGGCCGGAUAAUCGCGUGGAUAUGGCACGCAAGUUUCUACCGGGCACCGUAAAUGUCCGACUGGAGCCGUUCGGGCGGCUAUAAACAGACCUCAGGCCCGAAGCGUGGCGGCACCUGCCGCCGGUGGUAAAAAAGAUCGGAAGAGCACACGUCU [U7C U8G U10C U11C C12G C13G] the “aptazyme ON/OFF ratio” value was 1.13. With GGGUCGCGGCCGAAUAAUCGCGUGGAUAUGGCACGCAAGUUUCUACCGGGCACCGUAAAUGUCCGACUGGAGCCGUUCGGGCGGCUAUAAACAGACCUCAGGCCCGAAGCGUGGCGGCACCUGCCGCCGGUGGUAAAAAAGAUCGGAAGAGCACACGUCU [U7C U8G U10C U11C C12G C13A] the “aptazyme ON/OFF ratio” value was 1.14. With GGGUCGCGGCCAAAUAAUCGCGUGGAUAUGGCACGCAAGUUUCUACCGGGCACCGUAAAUGUCCGACUGGAGCCGUUCGGGCGGCUAUAAACAGACCUCAGGCCCGAAGCGUGGCGGCACCUGCCGCCGGUGGUAAAAAAGAUCGGAAGAGCACACGUCU [U7C U8G U10C U11C C12A C13A] the “aptazyme ON/OFF ratio” value was 1.16. For GGGUCGCGGCCAGAUAAUCGCGUGGAUAUGGCACGCAAGUUUCUACCGGGCACCGUAAAUGUCCGACUGGAGCCGUUCGGGCGGCUAUAAACAGACCUCAGGCCCGAAGCGUGGCGGCACCUGCCGCCGGUGGUAAAAAAGAUCGGAAGAGCACACGUCU [U7C U8G U10C U11C C12A C13G], the “aptazyme ON/OFF ratio” value was 1.14. In the case of GGGUCGCGGCCAUAUAAUCGCGUGGAUAUGGCACGCAAGUUUCUACCGGGCACCGUAAAUGUCCGACUGGAGCCGUUCGGGCGGCUAUAAACAGACCUCAGGCCCGAAGCGUGGCGGCACCUGCCGCCGGUGGUAAAAAAGAUCGGAAGAGCACACGUCU [U7C U8G U10C U11C C12A C13U], the “aptazyme ON/OFF ratio” value is reported as 1.15. For GGGUCGCGGCAUUAUAAUCGCGUGGAUAUGGCACGCAAGUUUCUACCGGGCACCGUAAAUGUCCGACUGGAGCCGUUCGGGCGGCUAUAAACAGACCUCAGGCCCGAAGCGUGGCGGCACCUGCCGCCGGUGGUAAAAAAGAUCGGAAGAGCACACGUCU [U7C U8G U10C U11A C12U C13U], the “aptazyme ON/OFF ratio” value was 1.24. With GGGUCGCGGCAUAAUAAUCGCGUGGAUAUGGCACGCAAGUUUCUACCGGGCACCGUAAAUGUCCGACUGGAGCCGUUCGGGCGGCUAUAAACAGACCUCAGGCCCGAAGCGUGGCGGCACCUGCCGCCGGUGGUAAAAAAGAUCGGAAGAGCACACGUCU [U7C U8G U10C U11A C12U C13A] the “aptazyme ON/OFF ratio” value was 1.15. With GGGUCGCGGCAUGAUAAUCGCGUGGAUAUGGCACGCAAGUUUCUACCGGGCACCGUAAAUGUCCGACUGGAGCCGUUCGGGCGGCUAUAAACAGACCUCAGGCCCGAAGCGUGGCGGCACCUGCCGCCGGUGGUAAAAAAGAUCGGAAGAGCACACGUCU [U7C U8G U10C U11A C12U C13G] the “aptazyme ON/OFF ratio” value was 1.11. With GGGUCGCGGCCACAUAAUCGCGUGGAUAUGGCACGCAAGUUUCUACCGGGCACCGUAAAUGUCCGACUGGAGCCGUUCGGGCGGCUAUAAACAGACCUCAGGCCCGAAGCGUGGCGGCACCUGCCGCCGGUGGUAAAAAAGAUCGGAAGAGCACACGUCU [U7C U8G U10C U11C C12A] the “aptazyme ON/OFF ratio” value was 1.48. With GGGUCGCGGCCGCAUAAUCGCGUGGAUAUGGCACGCAAGUUUCUACCGGGCACCGUAAAUGUCCGACUGGAGCCGUUCGGGCGGCUAUAAACAGACCUCAGGCCCGAAGCGUGGCGGCACCUGCCGCCGGUGGUAAAAAAGAUCGGAAGAGCACACGUCU [U7C U8G U10C U11C C12G] the “aptazyme ON/OFF ratio” value was 1.41. With GGGUCGCGGCACGAUAAUCGCGUGGAUAUGGCACGCAAGUUUCUACCGGGCACCGUAAAUGUCCGACUGGAGCCGUUCGGGCGGCUAUAAACAGACCUCAGGCCCGAAGCGUGGCGGCACCUGCCGCCGGUGGUAAAAAAGAUCGGAAGAGCACACGUCU [U7C U8G U10C U11A C13G] the “aptazyme ON/OFF ratio” value was 1.16. In the case of GGGUCGCGGCACAAUAAUCGCGUGGAUAUGGCACGCAAGUUUCUACCGGGCACCGUAAAUGUCCGACUGGAGCCGUUCGGGCGGCUAUAAACAGACCUCAGGCCCGAAGCGUGGCGGCACCUGCCGCCGGUGGUAAAAAAGAUCGGAAGAGCACACGUCU [U7C U8G U10C U11A C13A], the “aptazyme ON/OFF ratio” value is reported as 1.32. For GGGUCGCGGCACUAUAAUCGCGUGGAUAUGGCACGCAAGUUUCUACCGGGCACCGUAAAUGUCCGACUGGAGCCGUUCGGGCGGCUAUAAACAGACCUCAGGCCCGAAGCGUGGCGGCACCUGCCGCCGGUGGUAAAAAAGAUCGGAAGAGCACACGUCU [U7C U8G U10C U11A C13U], the “aptazyme ON/OFF ratio” value was 3.36. For GGGUCGCGGCAAAAUAAUCGCGUGGAUAUGGCACGCAAGUUUCUACCGGGCACCGUAAAUGUCCGACUGGAGCCGUUCGGGCGGCUAUAAACAGACCUCAGGCCCGAAGCGUGGCGGCACCUGCCGCCGGUGGUAAAAAAGAUCGGAAGAGCACACGUCU [U7C U8G U10C U11A C12A C13A], the “aptazyme ON/OFF ratio” value was 1.19. For GGGUCGCGGCAAUAUAAUCGCGUGGAUAUGGCACGCAAGUUUCUACCGGGCACCGUAAAUGUCCGACUGGAGCCGUUCGGGCGGCUAUAAACAGACCUCAGGCCCGAAGCGUGGCGGCACCUGCCGCCGGUGGUAAAAAAGAUCGGAAGAGCACACGUCU [U7C U8G U10C U11A C12A C13U], the “aptazyme ON/OFF ratio” value was 1.33. In the case of GGGUCGCGGCAAGAUAAUCGCGUGGAUAUGGCACGCAAGUUUCUACCGGGCACCGUAAAUGUCCGACUGGAGCCGUUCGGGCGGCUAUAAACAGACCUCAGGCCCGAAGCGUGGCGGCACCUGCCGCCGGUGGUAAAAAAGAUCGGAAGAGCACACGUCU [U7C U8G U10C U11A C12A C13G], the “aptazyme ON/OFF ratio” value is reported as 1.14. With GGGUCGCGGCAGAAUAAUCGCGUGGAUAUGGCACGCAAGUUUCUACCGGGCACCGUAAAUGUCCGACUGGAGCCGUUCGGGCGGCUAUAAACAGACCUCAGGCCCGAAGCGUGGCGGCACCUGCCGCCGGUGGUAAAAAAGAUCGGAAGAGCACACGUCU [U7C U8G U10C U11A C12G C13A] the “aptazyme ON/OFF ratio” value was 1.07. In the case of GGGUCGCGGCAGGAUAAUCGCGUGGAUAUGGCACGCAAGUUUCUACCGGGCACCGUAAAUGUCCGACUGGAGCCGUUCGGGCGGCUAUAAACAGACCUCAGGCCCGAAGCGUGGCGGCACCUGCCGCCGGUGGUAAAAAAGAUCGGAAGAGCACACGUCU [U7C U8G U10C U11A C12G C13G], the “aptazyme ON/OFF ratio” value is reported as 1.12.
